The target of this test is full-length His6-PIPKIγi5 (human, UniProt O60331-3 1-707). The experiment in a line: pull-down.

B1: GST-SNX5 (natural protein, UniProt Q9Y5X3 1-404, looked up)
chain: MAAVPELLQQQEEDRSKLRSVSVDLNVDPSLQIDIPDALSERDKVKFTVHTKTTLPTFQSPEFSVTRQHEDFVWLHDTLIETTDYAGLIIPPAPTKPDFDGPREKMQKLGEGEGSMTKEEFAKMKQELEAEYLAVFKKTVSSHEVFLQRLSSHPVLSKDRNFHVFLEYDQDLSVRRKNTKEMFGGFFKSVVKSADEVLFTGVKEVDDFFEQEKNFLINYYNRIKDSCVKADKMTRSHKNVADDYIHTAACLHSLALEEPTVIKKYLLKVAELFEKLRKVEGRVSSDEDLKLTELLRYYMLNIEAAKDLLYRRTKALIDYENSNKALDKARLKSKDVKLAEAHQQECCQKFEQLSESAKEELINFKRKRVAAFRKNLIEMSELEIKHARNNVSLLQSCIDLFKNN
On to B1, for which the binding result is reported as “binds”.

The values above are taken from PMC3740164 (Developmental cell, 2013).
